Experimental data as given in patent US20130136748A1 (Ablynx, published 2013).

T1: cHER3ECD (Maccaca fascicularis HER3 extracellular domain) (Macaca fascicularis, UniProt P21860 20-643 (human entry))
T1 construct: also called cyno HER3ECD; cyno HER3-ECD
T1 chain: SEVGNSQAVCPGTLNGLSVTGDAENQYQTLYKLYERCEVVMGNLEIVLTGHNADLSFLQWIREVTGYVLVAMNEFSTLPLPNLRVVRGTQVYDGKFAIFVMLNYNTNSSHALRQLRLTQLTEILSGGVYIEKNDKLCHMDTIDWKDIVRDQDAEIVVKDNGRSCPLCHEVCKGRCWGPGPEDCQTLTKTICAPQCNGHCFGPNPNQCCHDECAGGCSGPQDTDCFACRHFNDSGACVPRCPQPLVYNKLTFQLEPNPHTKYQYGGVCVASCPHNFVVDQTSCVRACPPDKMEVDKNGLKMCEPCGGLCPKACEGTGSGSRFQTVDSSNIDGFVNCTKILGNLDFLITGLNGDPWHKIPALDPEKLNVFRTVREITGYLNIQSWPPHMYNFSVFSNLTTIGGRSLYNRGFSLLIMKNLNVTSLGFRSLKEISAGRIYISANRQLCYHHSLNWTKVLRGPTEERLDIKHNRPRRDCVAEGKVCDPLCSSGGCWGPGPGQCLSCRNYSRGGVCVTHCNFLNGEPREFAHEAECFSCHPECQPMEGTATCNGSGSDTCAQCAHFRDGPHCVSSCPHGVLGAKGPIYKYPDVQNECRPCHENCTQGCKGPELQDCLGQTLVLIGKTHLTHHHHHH

B1: 17C08 (VHH)
VHH: EVQLVESGGGLMQAGDSLRLSCAASGRAFSSYALGWFRRAPGKERECVAATDRLGDNTYFPDSVKGRFTISRDNAKNTLYLQMNNLKPEDTAVYYCAAGAVRYGVSTSPMNYNYWGQGTQVTVSS
notes: also called 17C8
B2: 18G11 (VHH)
VHH: EVQLVESGGGLVQPGGSLRLSCAASGTLFKINAMGWYRQAPGKRRELVALITSSDTTDYAESVEGRFTISRDNTWNAVYLQMNSLKPEDTAVYYCHSDHYSMGVPEKRVIMYGQGTQVTVSS
notes: c-myc, His6-tagged form as expressed; also called HER3MS18G11; HER3MS018G11
B3: 04C07 (VHH)
VHH: EVQLVESGGGLVQAGGSLRLSCAASGFTFSSYPMSWVRQAPGKGPAWVSTVSPGGITTSYADSVKGRFTISRDNAKNTLYLQMNSLKPEDTAVYYCLRDLNNRGQGTQVTVSS
notes: also called HER3MS04C07; HER3MS004C07

Tests used:
human HER2 [1] = target: T2, human HER2 (human, UniProt P04626 23-1255); assay: FACS CHO-HER2, 667 nM
T2 construct: also called hHER2

human HER1 [2] = target: T3, human HER1 (human, UniProt P00533 25-1210); assay: FACS CHO-HER1, 667 nM
T3 construct: also called EGFR; ErbB1

human HER4 [3] = target: T4, human HER4 (human, UniProt Q15303 26-1308); assay: FACS CHO-HER4, 667 nM
T4 sequence (Q15303 26-1308 limits assumed): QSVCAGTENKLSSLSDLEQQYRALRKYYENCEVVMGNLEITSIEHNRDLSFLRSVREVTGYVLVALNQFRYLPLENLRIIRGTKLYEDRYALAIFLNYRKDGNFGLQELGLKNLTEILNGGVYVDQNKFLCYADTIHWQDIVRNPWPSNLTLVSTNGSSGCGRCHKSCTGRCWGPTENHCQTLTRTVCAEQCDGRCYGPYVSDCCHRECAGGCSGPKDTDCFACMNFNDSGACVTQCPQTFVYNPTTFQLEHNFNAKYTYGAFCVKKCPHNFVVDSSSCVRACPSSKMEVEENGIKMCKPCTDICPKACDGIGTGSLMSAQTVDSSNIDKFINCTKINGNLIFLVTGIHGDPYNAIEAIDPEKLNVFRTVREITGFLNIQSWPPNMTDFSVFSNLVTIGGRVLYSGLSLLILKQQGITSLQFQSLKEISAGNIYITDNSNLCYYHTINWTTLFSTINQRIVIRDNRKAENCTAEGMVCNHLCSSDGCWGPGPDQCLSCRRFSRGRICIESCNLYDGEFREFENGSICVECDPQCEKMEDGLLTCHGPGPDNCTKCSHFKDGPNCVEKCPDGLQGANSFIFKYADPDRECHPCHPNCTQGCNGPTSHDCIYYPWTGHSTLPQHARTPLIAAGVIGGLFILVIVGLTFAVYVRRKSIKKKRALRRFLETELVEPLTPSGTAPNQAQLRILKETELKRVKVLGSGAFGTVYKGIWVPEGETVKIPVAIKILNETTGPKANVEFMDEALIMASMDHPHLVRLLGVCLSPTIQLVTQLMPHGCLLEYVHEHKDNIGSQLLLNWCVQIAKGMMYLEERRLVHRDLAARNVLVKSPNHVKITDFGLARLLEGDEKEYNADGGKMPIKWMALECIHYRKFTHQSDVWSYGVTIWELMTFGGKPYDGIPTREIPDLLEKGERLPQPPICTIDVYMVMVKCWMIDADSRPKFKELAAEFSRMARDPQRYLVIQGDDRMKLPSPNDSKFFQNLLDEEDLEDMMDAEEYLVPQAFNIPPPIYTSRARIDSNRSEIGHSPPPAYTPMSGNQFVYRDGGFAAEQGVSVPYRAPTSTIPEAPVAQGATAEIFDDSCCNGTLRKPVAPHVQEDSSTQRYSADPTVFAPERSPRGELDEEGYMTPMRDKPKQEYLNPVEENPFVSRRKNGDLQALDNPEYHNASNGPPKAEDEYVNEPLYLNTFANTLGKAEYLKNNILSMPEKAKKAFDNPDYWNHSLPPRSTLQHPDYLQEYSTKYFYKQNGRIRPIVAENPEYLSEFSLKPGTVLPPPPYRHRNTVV

hHER3 full length [4] = target: T5, hHER3 full length (human, UniProt P21860 20-1342); assay: FACS, 400 nM, competitor 21B02-biotin
T5 construct: On transfected CHO, CHO HER2/HER3, CHO EGFR/HER3 or CHO Flp-In cells; endogenous HER3 of MCF-7 and MDA-MB468 cells in the signalling assays; also called human HER3

human HER2 [5] = target: T2, human HER2; assay: FACS, CHO-HER2
human HER4 [6] = target: T4, human HER4; assay: FACS, CHO-HER4
human HER1 [7] = target: T3, human HER1; assay: FACS, CHO-HER1
[8] = target: T1, cHER3ECD (Maccaca fascicularis HER3 …); assay: ELISA, coated cHER3-ECD
hHER3 full length [9] = target: T5, hHER3 full length; assay: FACS, 400 nM, competitor 17C08-biotin
human HER4 [10] = target: T4, human HER4; assay: FACS CHO-HER4, 222 nM
hHER3 full length [11] = target: T5, hHER3 full length; assay: FACS, 400 nM, competitor 23F05-biotin
hHER3 full length [12] = target: T5, hHER3 full length; assay: FACS, 400 nM, competitor 04F10-biotin
hHER3 full length [13] = target: T5, hHER3 full length; assay: FACS, 400 nM, competitor 18E08-biotin
human HER1 [14] = target: T3, human HER1; assay: FACS CHO-HER1, 222 nM
human HER2 [15] = target: T2, human HER2; assay: FACS CHO-HER2, 2000 nM
human HER4 [16] = target: T4, human HER4; assay: FACS CHO-HER4, 2000 nM
hHER3 full length [17] = target: T5, hHER3 full length; assay: cell-based or functional assay
human HER2 [18] = target: T2, human HER2; assay: FACS CHO-HER2, 222 nM
hHER3 full length [19] = target: T5, hHER3 full length; assay: FACS, 400 nM, competitor 04C07-biotin
[20] = target: T6, hHER3 ECD (human HER3 extracellular domain) (human, UniProt P21860 20-643); assay: ELISA, coated hHER3-ECD
T6 construct: also called recombinant HER3-ECD

human HER1 [21] = target: T3, human HER1; assay: FACS CHO-HER1, 2000 nM
hHER3 full length [22] = target: T5, hHER3 full length; assay: cell-based or functional assay; remark: listed apart in the source
[23] = target: T7, human HER3-Fc (R&D Systems, 348-RB) (human, UniProt P21860 20-643); assay: SPR, HER3-Fc captured by anti-Fc
T7 construct: Bought; also called hHER3-Fc; Fc-HER3; Fc part of the bought chimera not given, not described

| MCF (human HER2 [1]) | MCF (human HER1 [2]) | MCF (human HER4 [3]) | % competition (hHER3 full length [4]) [%] | binding result (human HER2 [5]) | binding result (human HER4 [6]) | binding result (human HER1 [7]) | EC50 [8] [nM] | % competition (hHER3 full length [9]) [%] | MCF (human HER4 [10]) | % competition (hHER3 full length [11]) [%] | % competition (hHER3 full length [12]) [%] | % competition (hHER3 full length [13]) [%] | MCF (human HER1 [14]) | MCF (human HER2 [15]) | MCF (human HER4 [16]) | IC50, HRG1-β1 induced pAkt, MCF-7 (hHER3 full length [17]) [M] | MCF (human HER2 [18]) | % competition (hHER3 full length [19]) [%] | EC50 [20] [nM] | also measured | Binder |
| --- | --- | --- | --- | --- | --- | --- | --- | --- | --- | --- | --- | --- | --- | --- | --- | --- | --- | --- | --- | --- | --- |
| 418 | 47 | 91 | 16 | no binding (tested: 2000 nM) | no binding (tested: 2000 nM) | no binding (tested: 2000 nM) | 0.59 | 97 | 210 | 17 | 77 | 98 | 62 | 1220 | 254 | 7.24e-07 | 160 | 3 | 0.62 | inhibition of HRG1-β1 induced pERK1/2, MCF-7 (hHER3 full length [17]): < 50 % inhibition; MCF (human HER1 [21]): 58; IC50, HRG1-β1 induced pHER3, MCF-7 (hHER3 full length [22]): 8.98e-08 M; IC50, HRG1-β1 induced pHER3, MDA-MB468 (hHER3 full length [22]): 5.38e-08 M | B1 |
| 117 | 87 | 56 | 0 | no binding (tested: 2000 nM) | no binding (tested: 2000 nM) | no binding (tested: 2000 nM) | 0.64 | 74 | 57 | 0 | 0 | 97 | 101 | 65 | 124 | 1.38e-07 | 109 | 0 | 0.72 | inhibition of HRG1-β1 induced pERK1/2, MCF-7 (hHER3 full length [17]): < 50 % inhibition; MCF (human HER1 [21]): 97; Kd [23]: 10 nM; kon [23]: 26000 M⁻¹ s⁻¹; IC50, HRG1-β1 induced pHER3, MCF-7 (hHER3 full length [22]): 1.03e-08 M; IC50, HRG1-β1 induced pHER3, MDA-MB468 (hHER3 full length [22]): 7.03e-09 M | B2 |
| 79 | 92 | 103 | 2 | no binding (tested: 2000 nM) | no binding (tested: 2000 nM) | no binding (tested: 2000 nM) | 0.93 | 15 | 96 | 0 | 0 | 26 | 75 | 154 | 105 | 1.09e-08 | 84 | 100 | 0.86 | IC50, HRG1-β1 induced pERK1/2, MCF-7 (hHER3 full length [17]): 2.79e-08 M; MCF (human HER1 [21]): 72; Kd [23]: 0.22 nM; kon [23]: 1.2e+06 M⁻¹ s⁻¹; IC50, HRG1-β1 induced pHER3, MCF-7 (hHER3 full length [22]): 1.07e-09 M; IC50, HRG1-β1 induced pHER3, MDA-MB468 (hHER3 full length [22]): 6.68e-09 M | B3 |
